Molecular target: MS2-Biotin, biotinylated single-chain MS2 coat protein dimer with an AviTag in a surface loop of the second monomer (bacteriophage MS2)
Assay: SEC

stoichiometry N (streptavidin molecules per VLP): 72
Substance: streptavidin (from UniProt P22629 25-183) (natural protein)
